pKd: −log10 of the molar value.
Legend:
[1] = target: Leishmania braziliensis Hsp90 (LbHsp90) (Leishmania braziliensis)
[2] = target: Leishmania braziliensis Hsp90 (LbHsp90) (Leishmania braziliensis); assay: ITC; LbAha1 (130–150 µM) injected into LbHsp90 (around 5.5 µM, as dimers); 40 mM HEPES pH 7.5, 5 mM KCl; 20°C; One Set of Sites fit; apparent enthalpy

stimulation of LbHsp90 ATPase activity (1 µM dimer, 0.5 mM ATP, 37°C) by increasing LbAha1 (0–20 µM in the methods, 0–16 µM in the legend); relative ATPase activity [1]: 10 fold
pKd [2]: 6.00
dH [2]: -18 kcal/mol
stoichiometry N (LbAha1 per LbHsp90 dimer) [2]: 2
Substance: Leishmania braziliensis Activator of Hsp90 ATPase 1 (LbAha1) (natural protein)

From PMC3691308
